The values that follow come from US20260297164A1, “ANTI-FIBROTIC PEPTIDES AND USES THEREOF” (Deackt, Inc., priority 2021, published 2026).

Assay [1] relates to Col1a1 expression in CD148-deficient (Ptprj−/−) lung fibroblasts. The experiment in a line: Col1a1 qPCR in CD148-deficient lung fibroblasts with NF-κB inhibitor. The following applies: CD148-deficient cells, TGF-β1 10 ng/ml; Bay 11-7082 10 μM. The assay is classed as cell-based, mouse. On the procedure:
FIG. 4. CD148 deficiency enhances PI3K/Akt/mTOR signaling which results in enhanced NF-κB activation in lung fibroblasts. (A) WT and Ptprj−/− cells were stimulated with TGF-β1 (10 ng/ml) for 24 h. Cells were lysed and p-IKKα/β, p-IκB and IκB were measured by western blot (n=4). GAPDH was the standard. Bar graphs at right are the quantitation of corresponding proteins. (B) WT and Ptprj−/− cells were stimulated with TGF-β1 (10 ng/ml) for 24 h. Cells were subjected to cytosol and nuclear protein fractionation. The p65 (NF-κB subunit) nuclear translocation was measured by western blot (n=3). β-actin and PCNA were used as cytosolic and nuclear markers, respectively. Bar graphs at right are the quantitation of corresponding proteins. p65 cytosolic/nuclear ratio is shown (far right). Data are mean±s.e.m. *P<0.05, by Kurskal-Wallis non-parametric test (C-D) WT or Ptprj−/− cells were transfected with scr or shp62 (lentivirus). Cells were stimulated with TGF-β1 (10 ng/ml) in the presence or absence or wortmannin (wort, 50 nM) or rapamycin (rapa, 1 μM). At 24 h cells were harvested and subjected to qPCR for Col1a1 or Acta2 (n=5). […] Luciferase activity were measured as described in methods (n=4 or 7). […] (F) WT or Ptprj−/− cells were stimulated with TGF-β1 (10 ng/ml) in the presence or absence of the NF-κB inhibitor Bay 11-7082 (10 μM). mRNA levels of Col1a1 were measured by qPCR (n=5 for each condition). […]
Background: Quantitative PCR measures a nucleic acid by following its amplification.

Assay [2] relates to IPF-derived lung fibroblasts. Put plainly: FasL-induced cell death (MTT cell viability). The assay is classed as cell-based, human. The following applies: FasL 100 and 200 ng/ml, 24 h. How it is done: FIG. 1. […] (A) CD148 protein expression levels were determined in lung homogenates from control (n=5) and IPF (n=5) patients. (Graphic) Densitometry (by ImageJ software). (B) Lung specimens from control (n=9) and IPF (n=10) patients were homogenized and subjected to total RNA isolation. Ptprj (CD148) mRNA levels were assessed using qPCR. (C) Single cell suspensions of control (n=6) and IPF (n=7) were enriched for fibroblasts. mRNA expression of CD148 in fibroblast-enriched cell populations were assessed using qPCR. (D) Representative fluorescence microscopy images of CD148 (Cy3, red), Vimentin (GFP, green) and DAPI (blue) in control (n=4) and IPF lung tissue (n=5). Scale bar=100 μm. […] CD148 fluorescence intensity was quantified by ImageJ. […] (E) CD148 protein levels were measured by western blot (n=3). (F) mRNA levels of fibronectin (Fn) and Collagen 1a1 (Col1a1) were measured using qPCR (n=5). […] After treatment, cell viability was determined using the MTT assay (n=5). […] Clusters labeled as fibroblast and myofibroblast were extracted from our previously published scRNA-seq data set and analysed using R-program. […] P values were calculated by Mann-Whitney unpaired test. (L) mRNA expression of CD148 in sorted AT1 and AT2 cells were assessed using qPCR. […] After treatment, cell viability was assessed with the MTT assay (n=4). […]
FIG. 6. […] (B) mRNA levels of Fn and Col1a1 were measured by qPCR (n=5). […]

Another assay deals with CD148. The following applies: extracellular proteins; cited from earlier work.

As to `Cc1ccc(S(=O)(=O)/C=C/C#N)cc1` [Bay 11-7082], in assay [1], the “TGF-β1-dependent increase in Col1a1 expression” value was “inhibited”.

B1: FasL: Soluble recombinant human FasL (protein, UniProt P48023 103-281, looked up)
extracellular domain: QLFHLQKELAELRESTSQMHTASSLEKQIGHPSPPPEKKELRKVAHLTGKSNSRSMPLEWEDTYGIVLLSGVKYKKGGLVINETGLYFVYSKVYFRGQSCNNLPLSHKVYMRNSKYPQDLVMMEGKMMSYCTTGQMWARSSYLGAVFNLTSADHLYVNVSELSLVNFEESQTFFGLYKL
modifications: extracellular domain soluble recombinant
Turning to B1, the “cell death induced by Fas ligand” value in assay [2] is “resistant to cell death”.

B2: syndecan-2: known extracellular protein that can bind to CD148 (protein, UniProt P34741 19-201, looked up)
Syndecan-2: ESRAELTSDKDMYLDNSSIEEASGVYPIDDDDYASASGSGADEDVESPELTTSRPLPKILLTSAAPKVETTTLNIQNKIPAQTKSPEETDKEKVHLSDSERKMDPAEEDTNVYTEKHSDSLFKRTEVLAAVIAGGVIGFLFAIFLILLLVYRMRKKDEGSYDLGERKPSSAAYQKAPTKEFYA
Turning to B2, the “binding to CD148 and activation of PTP activity” value with CD148 was “can bind to CD148 and activate PTP activity”.
